Assay results: patent publication US20200181597A1, “Composition and Application of Arginine-depleting Agents for Cancer, Obesity, Metabolic Disorders, and Related Complications and Comorbidities” (THE HONG KONG POLYTECHNIC UNIVERSITY, priority 2018, published 2020)

How the values were obtained:
[1] = tested on: mouse 3T3-L1 preadipocytes; assay: 3T3-L1 preadipocyte differentiation (oil red O, qRT-PCR); type: cell-based
Method: FIG. 23 illustrates that arginine depletion by adding N-ABD094-rhArg (SEQ ID NO: 50) (rhArg), bovine arginase or native arginine deiminase (ADI) to the culture medium, or using arginine-free medium inhibited the differentiation of mouse 3T3-L1 preadipocytes into adipocytes. […] (*The culture medium contains 0.4 mM L-arginine and can be converted into 0.4 mM L-ornithine and 0.4 mM urea by arginase, or 0.4 mM L-citrulline by ADI.). Cells grown in culture medium without addition of arginine depleting agents or metabolic products of arginase/ADI served as the control. Lipids in cells were stained with oil red O at 6 days after exposure to specific differentiation-inducing factors added to the medium.
FIG. 24 illustrates that N-ABD094-rhArg (SEQ ID NO: 50) could suppress adipogenic and lipogenic genes in 3T3-L1 preadipocytes. Mouse 3T3-L1 preadipocytes were cultured for 6 days in medium supplemented with specific factors to induce differentiation into adipocytes (differentiated). Cells grown in medium without these factors remained undifferentiated. The medium was added with 2U/mL N-ABD094-rhArg (SEQ ID NO: 50) (rhArg). Cells grown in medium without the addition of N-ABD094-rhArg served as the control. The mRNA expression levels of several crucial (A) transcriptional regulators of adipogenesis, and (B) enzymes in lipogenic pathways were determined by real-time qRT-PCR, and expressed relative to the undifferentiated (control) group, which is set as 1. *P<0.05, one-way ANOVA followed by Fisher's LSD. Data are expressed as mean±SEM, n=3 for each group.
FIG. 25 illustrates the response of 3T3-L1 preadipocytes to various concentrations of arginine Mouse 3T3-L1 preadipocytes were cultured in arginine-free medium with or without addition of varying concentrations of L-arginine for 6 days. Cells cultured in normal arginine-containing medium supplemented with differentiation inducing factors served as the positive (+ve) control of differentiation, while cells cultured in normal arginine-containing medium without supplementation of differentiation inducing factors served as the negative (−Ve) control of differentiation. One group of cells was cultured in normal arginine-containing medium supplemented with differentiation inducing factors and treated with 5U/mL N-ABD094-rhArg (SEQ ID NO: 50) (rhArg) to inhibit differentiation. (A) Cells were stained for lipids with oil red O, and staining intensity was quantified by measuring optical density, which is expressed as the percentage against the +ve control group. (B) The mRNA levels of several crucial lipogenesis related genes are expressed relative to cells cultured in arginine-free medium, which is set as 1. Data are expressed as mean±SEM, n=3 for each group.
To test the effect of N-ABD094-rhArg (SEQ ID NO: 50) on fat cells, mouse 3T3-L1 preadipocytes were used, which are commonly employed as cell-based model for studying adipogenesis [Green and Meuth, 1974, Cell 3:127-133].

[2] = Arginase specific activity, DAMO colorimetric assay; type: biochemical; details: 37° C., pH 7.4, purified preparation
Description: The arginase activity of the fusion proteins described herein can be substantially the same, lower, or higher than the activity of the arginase polypeptide from which it is derived. One unit of arginase activity is defined as the amount of fusion protein [e.g., BHA (SEQ ID NO; 75), BAH (SEQ ID NO: 76), N-ABD-rhArg (SEQ ID NO: 49), or N-ABD094-rhArg (SEQ ID NO: 50)] or arginase [e.g., BCA (SEQ ID NO: 70)] that catalyzes the production of 1 μmol of urea per min under standard assay conditions. The specific activity of the enzyme is expressed as activity units per mg of protein. Under standard diacetylmonoxime (DAMO) assay conditions (37° C., pH 7.4), the fusion proteins can have a specific activity that is about 5%, about 10%, about 15%, about 20%, about 25% about 30%, about 35% or about 40% lower or higher than the corresponding arginase polypeptide which it incorporates. In certain embodiments, fusion proteins can have a specific activity that is about 5% to about 40%, about 10% to about 40%, about 10% to about 35%, about 10% to about 30%, about 20% to about 30%, about 20% to about 35%, about 15% to about 30%, about 15% to about 25%, or about 10% to about 20% lower or higher than the corresponding arginase polypeptide which it incorporates.
One unit of enzyme activity is defined as the amount of enzyme (BCA, BHA or BAH) that catalyzes the production of 1 μmol urea per min under standard assay conditions. Specific activity of the enzyme is expressed as activity units per mg of protein.
Briefly, a serial dilution of 0.3 mL BCA solutions together with 0.15 mL water and 720 mM arginine substrate at pH 7.4 was pre-incubated separately at 37° C. for 10 min. The enzymatic reaction was carried out by adding 0.3 mL arginine substrate to the pre-incubated enzyme solutions. […]
The urea formed from the above reaction was quantified using the DAMO direct colorimetric method described by World Health Organization (WHO). […] The absorbance at 540 nm was measured. […]

B1: N-ABD094-rhArg: albumin binding domain ABD094 fused N-terminally to recombinant human arginase I, SEQ ID NO: 50 (protein)
chain: MHHHHHHDEAVDANSLAEAKEAANAELDSYGVSDFYKRLIDKAKTVEGVEALKDAILAALPSGSNNNNNNGSGGMSAKSRTIGIIGAPFSKGQPRGGVEEGPTVLRKAGLLEKLKEQECDVKDYGDLPFADIPNDSPFQIVKNPRSVGKASEQLAGKVAEVKKNGRISLVLGGDHSLAIGSISGHARVHPDLGVIWVDAHTDINTPLTTTSGNLHGQPVSFLLKELKGKIPDVPGFSWVTPCISAKDIVYIGLRDVDPGEHYILKTLGIKYFSMTEVDRLGIGKVMEETLSYLLGRKKRPIHLSFDVDGLDPSFTPATGTPVVGGLTYREGLYITEEIYKTGLLSGLDIMEVNPSLGKTPEEVTRTVNTAVAITLACFGLAREGNHKPIDYLNPPK
modifications: Mn2+; N-ABD094-rhArg, Synthesized in the Lab
- mRNA levels of adipogenic transcription factors and lipogenic enzymes ([1]; 2U/mL, 6 days): significantly suppressed
- adipogenesis and lipogenesis in 3T3-L1 cells (oil red O) ([1]; added to culture medium, 6 days of differentiation): effectively inhibit
- Specific activity [2]: 184 U/mg
